The target in the test is recombinant human TNF-alpha (human) (UniProt P01375). Nature of the test: Scatchard analysis in solution: 125I-TNF and unlabelled TNF, antibody captured on anti-IgG agarose beads.
Sequence of UniProt P01375 (P01375 77-233 limits assumed): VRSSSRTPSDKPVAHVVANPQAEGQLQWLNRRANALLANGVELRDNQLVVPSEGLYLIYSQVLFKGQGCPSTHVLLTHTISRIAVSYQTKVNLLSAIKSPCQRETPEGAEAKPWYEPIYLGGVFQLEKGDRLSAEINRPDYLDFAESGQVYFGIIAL

The Kd is the constant that tells how readily two partners part at equilibrium. Take “CDP571 (CDR-grafted CB0010, gEU light chain / 2hEUg heavy chain) (antibody)”: the Kd was 0.14 nM.

Values taken from WO1992011383A1.
